Results on 5 molecules are retold here after paper PMC10011822 (The Journal of Biological Chemistry, 2023).

T1: SufS cysteine desulfurase, wild type (E. coli, UniProt P77444 1-406)
T1 construct: SufS cysteine desulfurase, E. coli, UniProt P77444; gene in pET-21(a); PLP-dependent enzyme; as purified it carries the pyridoxal-5'-phosphate cofactor (internal aldimine); also called WT SufS; wt SufS; source: E. coli BL21(DE3)Δsuf, pET21, purified (Q-XL, Phenyl HP, Superdex 200)
T1 sequence: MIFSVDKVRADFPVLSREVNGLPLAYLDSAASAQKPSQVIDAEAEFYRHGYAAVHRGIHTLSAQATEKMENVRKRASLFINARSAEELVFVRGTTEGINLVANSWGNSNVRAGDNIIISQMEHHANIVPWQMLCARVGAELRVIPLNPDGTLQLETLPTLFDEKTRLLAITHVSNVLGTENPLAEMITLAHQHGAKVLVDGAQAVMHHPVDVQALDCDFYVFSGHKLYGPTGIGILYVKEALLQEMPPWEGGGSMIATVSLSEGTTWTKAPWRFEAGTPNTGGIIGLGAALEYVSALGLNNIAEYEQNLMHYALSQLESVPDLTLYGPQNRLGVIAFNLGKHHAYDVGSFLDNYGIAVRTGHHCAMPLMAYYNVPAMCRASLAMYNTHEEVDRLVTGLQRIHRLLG

T2: D346R SufS (E. coli, UniProt P77444 1-406, D346R)
T2 construct: SufS cysteine desulfurase, E. coli, UniProt P77444, with D346R; gene in pET-21(a); No tag named; nothing is said of the oligomeric state of this variant; source: E. coli BL21(DE3)Δsuf, pET21, purified (Q-XL, Phenyl HP, Superdex 200)
T2 sequence: T1 sequence with D346R

B1: BODIPY-labelled C51A/E107C SufE (natural protein, E. coli)
chain: MALLPDKEKLLRNFLRCANWEEKYLYIIELGQRLPELRDEDRSPQNSIQGAQSQVWIVMRQNAQGIIELQGDSDAAIVKGLIAVVFILYDQMTPQDIVNFDVRPWFCKMALTQHLTPSRSQGLEAMIRAIRAKAAALS
modifications: BODIPY FL maleimide on the cysteine at 107 (E107C); labelling efficiency between 60 and 80%
notes: SufE transpersulfurase, E. coli, UniProt P76194, with C51A and E107C; gene in pET-21(a); No tag named; also called labeled C51A/E107C SufE; BODPIY-C51A/E107C SufE; source: E. coli BL21(DE3), pET21, purified (Q-XL, Superdex 200), labelled with BODIPY FL maleimide
B2: N99D SufS (enzyme, E. coli)
chain: T1 sequence with N99D
notes: SufS cysteine desulfurase, E. coli, UniProt P77444, with N99D; gene in pET-21(a); Carries the PLP cofactor; No tag named; Dimer in the crystal structure; residues 248 to 268 have no electron density; also called SufS N99D; source: E. coli BL21(DE3)Δsuf, pET21, purified (Q-XL, Phenyl HP, Superdex 200)
B3: N99A SufS (enzyme, E. coli)
chain: T1 sequence with N99A
notes: SufS cysteine desulfurase, E. coli, UniProt P77444, with N99A; gene in pET-21(a); Carries the PLP cofactor; No tag named; Dimer in the crystal structure; also called SufS N99A; source: E. coli BL21(DE3)Δsuf, pET21, purified (Q-XL, Phenyl HP, Superdex 200)

One data set addresses SufS (Escherichia coli, UniProt P77444). The settings on record: no SufE, 500 μM cysteine, with and without 2 mM TCEP, pH 8.0, 25 °C.
In another data set the target is SufE (Escherichia coli) (UniProt P76194). The following applies: cited from earlier work.
Data set [1] deals with T1, SufS cysteine desulfurase, wild type. The data set is described as follows: fluorescence polarisation; as without cysteine, but in the presence of 500 μM cysteine: SufS titrated against 100 nM BODIPY-labelled C51A/E107C SufE; 50 mM MOPS pH 8, 150 mM NaCl, 0.1 mg/ml BSA; room temperature. The following applies: both partners purified. For orientation: Polarisation of emitted light reports the rotation of a fluorescent probe.

The target in data set [2] is B3. Described as above. The settings on record: both partners purified.
Data set [3] addresses B2. The data set is described as above. The following applies: both partners purified.
The next data set has as its target T2, D346R SufS. The data set is described as follows: fluorescence polarisation; SufS (0.2-40 μM) titrated against 100 nM BODIPY-labelled C51A/E107C SufE; no cysteine; 50 mM MOPS pH 8, 150 mM NaCl, 0.1 mg/ml BSA; 30 min at room temperature; black 96-well plates; fit to a single-affinity site (Equation 3). The following applies: both partners purified.
In data set [4] the target is T1, SufS cysteine desulfurase, wild type. The data set is described as above. The settings on record: both partners purified.
Data set [5] concerns the target B3. The data set is described as above. The following applies: both partners purified.
Data set [6] deals with B2. Described as above. The settings on record: both partners purified.
Data set [7] concerns the molecule itself. The data set is described as follows: crystal structure; sitting drop vapor diffusion at 20 °C, 4 to 4.5 M NaCl, 100 mM MES pH 6.5; SufS variant alone, dimer.

Numbering of substitutions follows the chain as printed. In names and notes the source's numbering stands.

One may read the Kd as the equilibrium constant for the complex coming apart.

Take `N[C@@H](CS)C(=O)O` [cysteine]: the “alanine production plate-reader assay; UV-visible cysteine-PLP intermediates” value at SufS is “WT SufS is also capable of producing alanine”.
Take SufS (from UniProt P77444): the Kd with SufE (Escherichia coli) is 0.5 µM.
For the molecule B1, the Kd was 0.6 ± 0.2 µM in data set [1]; 3.1 ± 0.6 µM in the data set with N99A SufS [2]; 3.3 ± 0.7 µM in the data set with N99D SufS [3]; more than 40 µM in the data set with D346R SufS; 5.2 µM in data set [4]; 6.2 ± 1.8 µM with N99A SufS [5]. This molecule also displayed an equilibrium dissociation constant (Kd) with N99D SufS [6] of 9.9 ± 3 µM.
For B2, the binding result in [7] is recorded as “binds”.
On to B3, for which the binding result in data set [7] is recorded as “binds”.
